This is an account of results in the RNAGym collection of RNA variant scans (doi:10.7554/elife.80360).

B1: Hairpin Ribozyme (parent)
chain: GUCCUCUUUCACGUGCGCGUGAAAGAGAGAAGUGAACCAGAGAAACACACGUUGUGGUAUAUUACCUGGUA

In this series the parent is B1. Description: self-cleavage, relative activity (ratio to wild type); higher = more cleavage; co-transcriptional.
Turning to AUCGUCUUUCACGUGCGCGUGAAAGAGAGAAGUGAACCAGAGAAACACACGUUGUGGUAUAUUACCUGGUA [G1A C4G], the self-cleavage amounted to 0.149. For AUCAUCUUUCACGUGCGCGUGAAAGAGAGAAGUGAACCAGAGAAACACACGUUGUGGUAUAUUACCUGGUA [G1A C4A] the value was 0.248. For the variant CUCCUCUUUCACGUGCGCGUGGAAGAGAGAAGUGAACCAGAGAAACACACGUUGUGGUAUAUUACCUGGUA [G1C A22G], the self-cleavage is 0.255. Turning to AUCCUCUUUCACGUGCGCGUGAAAGAGAGAAGGGAACCAGAGAAACACACGUUGUGGUAUAUUACCUGGUA [G1A U33G], the self-cleavage came to 0.119. As for AUCCUCUUUCACGUGCGCGUGAAAGAGAGAAGUGAACCAGAGAAACACACGUUGUGGUAUAUUACCUGGUA [G1A], the self-cleavage is 0.185.

CUCCUCUUUCACGUGCGCGUGAAAGAGAGAAGUGAACCAGAGAAACACACGUUGUGGUAUAUUACCUGGUA [G1C]: the self-cleavage came to 0.203.

On to AUCCUCUUUCACGUGCGUGUGAAAGAGAGAAGUGAACCAGAGAAACACACGUUGUGGUAUAUUACCUGGUA [G1A C18U], for which the self-cleavage worked out at 0.256. For AUCCUCUUUCAAGUGCGCGUGAAAGAGAGAAGUGAACCAGAGAAACACACGUUGUGGUAUAUUACCUGGUA [G1A C12A] the value was 0.131; for AUCCUCUUUCAGGUGCGCGUGAAAGAGAGAAGUGAACCAGAGAAACACACGUUGUGGUAUAUUACCUGGUA [G1A C12G], 0.263. Regarding AUCCUCUUUCACGUGCGCGUGAAAGAGAGAAGUGAACCAGAGAAACACACGUUGUCGUAUAUUACCUGGUA [G1A G56C], the self-cleavage was found to be 0.282. In the case of AUCCUCUUUCACGUGCGCGUGAAAGAGAGAAGUGAACCAGAGAAACACACGUUGUUGUAUAUUACCUGGUA [G1A G56U], the self-cleavage was found to be 0.0996. With AUCCUCUUUCACGUGCGCGUGAAAGAGAGAAGUGAACCAGAGAAACACACGUUGUGGUAUAUUACCCGGUA [G1A U67C], the self-cleavage is 0.178. With AUCCUCUUUCACGUGCGCGUGAAAGAGAGAAGUGAACCAGAGAAACAGACGUUGUGGUAUAUUACCUGGUA [G1A C48G], the self-cleavage amounted to 0.201.

As to CUCCUCUUUCACGUGCGCGUGACAGAGAGAAGUGAACCAGAGAAACACACGUUGUGGUAUAUUACCUGGUA [G1C A23C], the self-cleavage was determined as 0.103.

For CUCCUCUUUCACGUGCGCGUGAUAGAGAGAAGUGAACCAGAGAAACACACGUUGUGGUAUAUUACCUGGUA [G1C A23U], the self-cleavage was found to be 0.197. Turning to AUCCUCUUUCACGUGCGCGUGAAAGAGAGAAGUGAACCAGAGAAACACACGUUGUGGUAUAUUACCUGUUA [G1A G69U], the self-cleavage worked out at 0.235. Consider AUCCUCUUUCACGUGCGCGUGAAAGACAGAAGUGAACCAGAGAAACACACGUUGUGGUAUAUUACCUGGUA [G1A G27C], for which the self-cleavage was determined as 0.213. Take AUCCUCUUUCACGUGCGCGUGAAAGAGAGAAGUGAACCAGAUAAACACACGUUGUGGUAUAUUACCUGGUA [G1A G42U]: the self-cleavage turned out to be 0.0643. AUCCUCUUUCACGUGCGCGUGAUAGAGAGAAGUGAACCAGAGAAACACACGUUGUGGUAUAUUACCUGGUA [G1A A23U]: the self-cleavage came to 0.163. With CUCCUCUUUCUCGUGCGCGUGAAAGAGAGAAGUGAACCAGAGAAACACACGUUGUGGUAUAUUACCUGGUA [G1C A11U], the self-cleavage was determined as 0.179. The same measure for AUCCUCUUUCACGUGCGCGUGAAACAGAGAAGUGAACCAGAGAAACACACGUUGUGGUAUAUUACCUGGUA [G1A G25C]: 0.209. Turning to AUCCUCUUUCACGUGCGCGUGAAAGAGAGAAGUGAACCAGAGAAACACACGUUGUGGUAUGUUACCUGGUA [G1A A61G], the self-cleavage is 0.132. In the case of AUCCUCUUUCACGUGCGCGUGAAAGAGAGAAGUGAACCAGAGAAACACACGUUGUGGUAUCUUACCUGGUA [G1A A61C], the self-cleavage came out at 0.175. For AUCCUCUUUCACGUGCGCGUGAAAGAGAGAAGUGGACCAGAGAAACACACGUUGUGGUAUAUUACCUGGUA [G1A A35G], the self-cleavage is 0.16.

On to AUCCUCUUUCACGUGCGCGUGAAAGAGAGAAGUGCACCAGAGAAACACACGUUGUGGUAUAUUACCUGGUA [G1A A35C], for which the self-cleavage came to 0.109.

As to AUCCUCUUUAACGUGCGCGUGAAAGAGAGAAGUGAACCAGAGAAACACACGUUGUGGUAUAUUACCUGGUA [G1A C10A], the self-cleavage turned out to be 0.175.

As for AUCCUCUUUCACGUGCGCGUGAAAGAGAGAAGUGAACCAGAGAAACACACGUUCUGGUAUAUUACCUGGUA [G1A G54C], the self-cleavage was 0.193. For AUCCUCUUUCACGUGCGCGUGAAAGAGAGAAGUGAACAAGAGAAACACACGUUGUGGUAUAUUACCUGGUA [G1A C38A] the value was 0.111. Consider AUCCUCUUUCACGUGCGCGUGAAAGAGAGAAGUGAACCAGAGAAACACACGUUGUGGUAUAUUACCUCGUA [G1A G68C], for which the self-cleavage is 0.181.

As to AUCCUCUUUCACGUGCGCGUGAAAGAGAGAAGUGAACCAGAGAAACUCACGUUGUGGUAUAUUACCUGGUA [G1A A47U], the self-cleavage was 0.257. As for AUCCUCUUUCACGUGCGCGUGAAAGAGAGAAGUGAACCAGAGAAACACACGGUGUGGUAUAUUACCUGGUA [G1A U52G], the self-cleavage turned out to be 0.0884. With AUGCUCUUUCACGUGCGCGUGAAAGAGAGAAGUGAACCAGAGAAACACACGUUGUGGUAUAUUACCUGGUA [G1A C3G], the self-cleavage stood at 0.342. For CUCCUCUUUCACGUGCGCGUGAAAGCGAGAAGUGAACCAGAGAAACACACGUUGUGGUAUAUUACCUGGUA [G1C A26C] the value was 0.14; for CUCCUCUUUCACGUGCGCGUGAAAGGGAGAAGUGAACCAGAGAAACACACGUUGUGGUAUAUUACCUGGUA [G1C A26G], 0.239; for AUCCUCUUUCACGUGCGCGUGAAAGAGAGAAGUUAACCAGAGAAACACACGUUGUGGUAUAUUACCUGGUA [G1A G34U], 0.189. Take AUCCUCUUUCACGUGCGCGUGAAAGAGAGAAGUCAACCAGAGAAACACACGUUGUGGUAUAUUACCUGGUA [G1A G34C]: the self-cleavage was 0.09. Take AUCCUCUUUCACGUGGGCGUGAAAGAGAGAAGUGAACCAGAGAAACACACGUUGUGGUAUAUUACCUGGUA [G1A C16G]: the self-cleavage was 0.169. Consider AUCCUCUUUCACGUGCGCGUGAAAGAGCGAAGUGAACCAGAGAAACACACGUUGUGGUAUAUUACCUGGUA [G1A A28C], for which the self-cleavage is 0.175. Turning to AUCCUCUUUCACGUGCGCGUGAAAGAGAGAAGUGAACCAGAGAAACACACGUUGUGGUUUAUUACCUGGUA [G1A A59U], the self-cleavage worked out at 0.286. Turning to AUCCUCUUUCACGUGCGCGUGAAAGAGAGAAGUGAACCAGGGAAACACACGUUGUGGUAUAUUACCUGGUA [G1A A41G], the self-cleavage turned out to be 0.0682. For AUCCUCUUUCACGUGCGCGUGAAAGAGAGAAGUGAACCAGAGAAACACGCGUUGUGGUAUAUUACCUGGUA [G1A A49G] the value was 0.233; for AUCCUCUUUCACGUGCGCGUGAAAGAGAGAAGUGAUCCAGAGAAACACACGUUGUGGUAUAUUACCUGGUA [G1A A36U], 0.0776; for AUCCUCUUUCACGUGCGCGAGAAAGAGAGAAGUGAACCAGAGAAACACACGUUGUGGUAUAUUACCUGGUA [G1A U20A], 0.213.
